Experimental data as given in the supplement of paper PMC9170038.

Test system: MS2 coat protein
Assay: apparent KD of MS2 coat protein; designed switch direction (-1 OFF switch, 1 ON switch): 1; higher = weaker reporter binding
Procedure, shortened: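 Each step of the titration lasted 0.8–1.5 h at the lowest concentration and 10–20 min at the highest. The protein, SNAP-549-labelled MS2 coat protein, went from 0.7 or 1.5 nM doubling to 3 µM over RNA switches transcribed on Illumina chips by stalled E. coli RNA polymerase. Normalised cluster fluorescence was curve-fitted, and the per-design median over clusters is given as apparent KD.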

[1] = input ligand: microRNA oligo, concentration not stated
[2] = Eterna round: R95, input ligand: FMN 200 uM
[3] = Eterna round: R95, input ligand: microRNA oligo, concentration not stated
[4] = Eterna round: R95, input ligand: none

Sequence | apparent KD of MS2 coat protein (input ligand: FMN 200 uM) [nM] | apparent KD of MS2 coat protein [1] [nM] | apparent KD of MS2 coat protein (input ligand: none) [nM] | apparent KD of MS2 coat protein [2] [nM] | apparent KD of MS2 coat protein [3] [nM] | apparent KD of MS2 coat protein [4] [nM]
GUUAGGAAUCUAGCAAACAUGAGGAUCACCCAUGUAAGUGGGAAGGAUAUGGUACAGAAACUGUACCAGAAGGUCUUAUUGUUU [Omei SS(NG) 3 AV8] (Eterna round: R96, puzzle: Same State NG 3) | 602 | 17.5 | 280 | – | – | –
GCUCGAUGAGCGUUCUACAUGAGGAUCACCCAUGUUCGUGGGCAGGAUAUUUACAUGCAGAGUGUAGAGAAGGGCCCAUCGAGC [SameState NG3 #66] (Eterna round: R96, puzzle: Same State NG 3) | 205 | 117 | 838 | – | – | –
AUUGGGUAACGAGGAUAUCGUUUUUGUUUUCUUCGAGAAGGCGUUAUAGUUUAUUUCUAUUGUUACAUGAGGAUCACCCAUGUU [JR_SSNG1_Sub054] (Eterna round: R96, puzzle: Same State NG 1) | 15.2 | 16.5 | 24.1 | – | – | –
ACAUGAAAUUCAGGAUAUUUUGUACCUACAUGUGACAUGAGGAUCACCCAUGUGGUAAGUAUAAGAGAGAAGGGAAAGAUAUGU [Equivalence 5 - Jieux - Same State NG 2] (Eterna round: R96, puzzle: Same State NG 2) | 29.1 | 29.9 | 38.5 | – | – | –
AACCCAGUGGAAGGAUAUGGCACCUUAUUGGUGCCAGAAGGUCCUAACAUGAGGAUCACCCAUGUGGGCCGGUCGAAAGACCGG [Fiskers NG1ss - 10] (Eterna round: R96, puzzle: Same State NG 1) | 101 | 242 | 338 | – | – | –
AACGGUGCUUGAAAUAGUCACAUGAGGAUCACCCAUGUUAGGCAGGAUAUGUGUCUAAGACGACCGCAGAAGGGCUCAAGCGAU [Eternabot solution 41] (Eterna round: R96, puzzle: Same State NG 3) | 49.5 | 26.9 | 34.6 | – | – | –
GCUCCGCAAUACUUUCACAUGAGGAUCACCCAUGUUCACGUUAAGGAUAUCUAUUGUGAGACAGUAGAGAAGGUAGCGAGCGAC [Eternabot solution 11] (Eterna round: R96, puzzle: Same State NG 3) | 25.7 | 15.2 | 24.2 | – | – | –
UCUUGGUUUUUGCUCGUUUUUUGUGUUGAACAUGAGGAUCACCCAUGUAUUGUACGGUCCAGUUUAGUGGUAAUCCG [JMF 69] (puzzle: Sensor for hsa-mir-208a) | – | – | – | 33.9 | 20.6 | 36.8
GGCUAGCCUCAAGGAUAUACGCUCUCAACAAAGAACCGACUACAUGAGGAUCACCCAUGUACCAUGUAGAAGGUGAGGUUAGCC [Eternabot solution 4] (Eterna round: R96, puzzle: Same State NG 2) | – | 397 | – | – | – | –
ACAUGAGAGUGAGGAUAUCAUGUACCUACAUGUGACAUGAGGAUCACCCAUGUGGUAAGUAUGACUGAGAAGGCACAGAUAUGU [Equivalance 90 - Jieux - Same State NG 2] (Eterna round: R96, puzzle: Same State NG 2) | 70.3 | 267 | 889 | – | – | –
GCCAUCGAGUGAGGAUAUGGCACCGUUUCGGUGCCAGAAGGCAUGUCAAUUGACAUGAGGAUCACCCAUGUAUUAUCGAUGGCA [JL Fiskers NG1ss - 33 mod 4] (Eterna round: R96, puzzle: Same State NG 1) | 75.4 | 556 | 835 | – | – | –
GUGGCACAUGAGGAUCACCCAUGUGGGUAGAACAUAGGAUAUCACCAACAAAAUACCCGGUGAGAAGGAUGAUGCC [Esanesdi] (puzzle: Same State 1) | – | – | – | 118 | 121 | 161
GUAAAACAUGAGGAUCACCCAUGUAAUAAUAUGGGAGGAUAUCAGAUUUAAUUUAAUUUAUGAGAAGGCCUAAAGU [Mat - Same State 1 - Mod of Eli - D63] (puzzle: Same State 1) | – | – | – | 94.4 | 16.4 | 628
AUUAAUAAUGCAGGAUAUGAUUAACAUGAGGAUCACCCAUGUGGUGUUGUGAGUAAGGAGAGUGAUCAGAAGGGCAUUUUUUUU [JMF's solution 27] (Eterna round: R96, puzzle: Same State NG 2) | 552 | 374 | 385 | – | – | –
GAGAGAGGGUGAGGAUAUUUAGUGAUAAUGAUGGGAGAAGGCACAGACAUGAGGAUCACCCAUGUGGGAAUAAUCCAGAGAGAG [Parity 10 - Jieux - Same State NG 1] (Eterna round: R96, puzzle: Same State NG 1) | 145 | 92.7 | 232 | – | – | –
UGACACACGGCAGGAUAUCGUUAGCAAAGCUAACGAGAAGGGCCUCAUGUCGUGGAAACGUGACAUGAGGAUCACCCAUGUUGC [Omei SS(NG)1 Cv10] (Eterna round: R96, puzzle: Same State NG 1) | 204 | 12.4 | 53.7 | – | – | –
GAGUGGUGGAGAGGAUAUACAUUGUUAUUCACUGUAGAAGGUUCUAACAUGAGGAUCACCCAUGUAGGACUAUUCCUGUGUUUU [Parity 57 - Jieux - Same State NG 1] (Eterna round: R96, puzzle: Same State NG 1) | – | 9.37 | – | – | – | –
GUUAAGAACUAAGGAUAUUGAAUACAUAUGUUUAACAUGAGGAUCACCCAUGUGGGUUGCGGUAUCGAGAAGGUAGAAUAAUAG [Mat - same State NG 2 - JL mod - D93] (Eterna round: R96, puzzle: Same State NG 2) | – | 89.8 | – | – | – | –
GUUACAUGAGGAUCACCCAUGUAUGUGUGGGAGUAAGUGUCUUAGGAUAUCUAUCAUUUAAUUAAAGAGAAGGAAGAUUGUUGU [JMF's solution 98] (Eterna round: R96, puzzle: Same State NG 3) | 86.9 | 87.3 | 113 | – | – | –
UAAGCAUUCCUAGGAUAUGUAGGAUAUGUACAUGAGGAUCACCCAUGUCUACCAGAGACAGAAGGACAGAAGGAGGAAUGCUUC [pwkr ssNG2 2FMN 1F5s.8] (Eterna round: R96, puzzle: Same State NG 2) | 19.1 | 25.8 | 36.5 | – | – | –
AGUCCAGCCUGAGCUGGACUGAAGCAUGUACAUGAGGAUCACCCAUGUUCAUGUACAGGCUUUUUGCUCGUCUUAUG [JL-shm-2.02 JL mod] (Eterna round: R96, puzzle: Sensor for hsa-mir-208a) | 619 | 14.6 | 676 | – | – | –
UGUUGUAUUACAGGAUAUCUAGUAUUGUUAUUUAGAGAAGGGUAUUCACAUGAGGAUCACCCAUGUAUAUACGAGGAAGUUGUG [JMF's solution 40] (Eterna round: R96, puzzle: Same State NG 1) | – | 28.8 | – | – | – | –
UCACCUAUCGACAUGAGGAUCACCCAUGUGGAUUGAGCUUCCAAGGAUAUCGGCGCACAACCCAUCGAGAAGGUGGAAAGAUAC [Eternabot solution 32] (Eterna round: R96, puzzle: Same State NG 3) | 16.6 | 12.3 | 18 | – | – | –
